Common to all, as to assay: fluorescence anisotropy
In data set [1] the target is T1, RecBCD (prokaryote (species  in the …, UniProt P08394;P07648;P04993 1-1180;1-1122;1-608)).
In data set [2] the target is T1, RecBCD. The source holds these as a separate data set.
For data set [3], the target named is T1, RecBCD. This is another data set of the same source.

Where two headings read alike, the source gives them in different places.

T1 sequence (P08394 whole entry, chain 1 of 3): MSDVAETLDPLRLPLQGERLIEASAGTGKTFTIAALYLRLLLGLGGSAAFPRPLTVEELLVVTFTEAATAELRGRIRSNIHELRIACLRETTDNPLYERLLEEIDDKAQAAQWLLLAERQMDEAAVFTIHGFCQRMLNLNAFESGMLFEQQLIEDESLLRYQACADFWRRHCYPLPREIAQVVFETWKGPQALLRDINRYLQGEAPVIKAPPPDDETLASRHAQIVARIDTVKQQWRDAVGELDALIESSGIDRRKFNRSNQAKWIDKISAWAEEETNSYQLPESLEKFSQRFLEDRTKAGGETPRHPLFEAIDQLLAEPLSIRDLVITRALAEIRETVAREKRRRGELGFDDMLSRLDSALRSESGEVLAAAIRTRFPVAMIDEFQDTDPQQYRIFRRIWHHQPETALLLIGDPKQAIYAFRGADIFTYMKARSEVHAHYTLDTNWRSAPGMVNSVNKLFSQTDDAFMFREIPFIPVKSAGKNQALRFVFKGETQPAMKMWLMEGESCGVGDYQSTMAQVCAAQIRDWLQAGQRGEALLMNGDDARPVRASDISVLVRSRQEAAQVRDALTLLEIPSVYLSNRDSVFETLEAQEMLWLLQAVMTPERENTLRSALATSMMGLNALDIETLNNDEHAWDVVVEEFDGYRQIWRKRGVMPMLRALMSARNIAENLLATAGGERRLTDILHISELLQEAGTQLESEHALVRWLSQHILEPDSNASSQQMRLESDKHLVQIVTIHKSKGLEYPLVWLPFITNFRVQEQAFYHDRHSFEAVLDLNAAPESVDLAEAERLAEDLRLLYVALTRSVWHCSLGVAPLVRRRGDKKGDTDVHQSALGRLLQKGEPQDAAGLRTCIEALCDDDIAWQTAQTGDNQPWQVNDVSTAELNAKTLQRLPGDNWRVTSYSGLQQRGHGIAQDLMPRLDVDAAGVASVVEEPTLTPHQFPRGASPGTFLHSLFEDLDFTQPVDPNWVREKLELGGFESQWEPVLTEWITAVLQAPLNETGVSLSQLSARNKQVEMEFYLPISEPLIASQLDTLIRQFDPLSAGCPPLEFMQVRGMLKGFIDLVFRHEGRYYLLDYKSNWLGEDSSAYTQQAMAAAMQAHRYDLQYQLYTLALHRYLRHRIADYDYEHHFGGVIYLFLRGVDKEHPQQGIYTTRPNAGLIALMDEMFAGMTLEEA
T1 sequence (P07648 whole entry, chain 2 of 3): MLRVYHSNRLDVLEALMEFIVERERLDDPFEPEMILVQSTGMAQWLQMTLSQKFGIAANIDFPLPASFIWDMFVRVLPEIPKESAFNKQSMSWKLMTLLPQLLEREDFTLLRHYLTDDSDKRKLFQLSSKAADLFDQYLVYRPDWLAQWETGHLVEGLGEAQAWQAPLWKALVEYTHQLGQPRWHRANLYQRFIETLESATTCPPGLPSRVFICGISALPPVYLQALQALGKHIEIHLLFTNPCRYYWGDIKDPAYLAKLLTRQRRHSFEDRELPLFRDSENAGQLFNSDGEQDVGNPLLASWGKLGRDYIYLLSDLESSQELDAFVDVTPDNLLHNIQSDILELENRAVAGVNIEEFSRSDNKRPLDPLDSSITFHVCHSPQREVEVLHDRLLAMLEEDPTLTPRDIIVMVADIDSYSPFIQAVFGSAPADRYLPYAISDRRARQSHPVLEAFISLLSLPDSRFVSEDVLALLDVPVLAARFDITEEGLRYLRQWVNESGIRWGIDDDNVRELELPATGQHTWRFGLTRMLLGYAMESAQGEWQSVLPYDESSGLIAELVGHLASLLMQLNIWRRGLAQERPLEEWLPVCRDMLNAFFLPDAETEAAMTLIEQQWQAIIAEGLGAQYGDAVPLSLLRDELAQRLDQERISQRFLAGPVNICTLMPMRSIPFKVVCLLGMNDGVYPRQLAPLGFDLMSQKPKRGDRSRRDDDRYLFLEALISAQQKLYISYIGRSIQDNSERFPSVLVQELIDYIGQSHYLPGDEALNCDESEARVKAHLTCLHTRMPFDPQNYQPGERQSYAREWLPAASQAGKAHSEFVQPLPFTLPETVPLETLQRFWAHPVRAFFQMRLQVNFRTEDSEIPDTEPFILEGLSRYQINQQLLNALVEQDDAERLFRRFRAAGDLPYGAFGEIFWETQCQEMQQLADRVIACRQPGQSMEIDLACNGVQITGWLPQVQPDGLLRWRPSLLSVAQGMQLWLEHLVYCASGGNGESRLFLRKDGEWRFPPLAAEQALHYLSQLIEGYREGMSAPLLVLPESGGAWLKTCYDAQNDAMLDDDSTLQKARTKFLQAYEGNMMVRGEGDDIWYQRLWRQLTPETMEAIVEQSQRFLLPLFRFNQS
T1 sequence (P04993 whole entry, chain 3 of 3): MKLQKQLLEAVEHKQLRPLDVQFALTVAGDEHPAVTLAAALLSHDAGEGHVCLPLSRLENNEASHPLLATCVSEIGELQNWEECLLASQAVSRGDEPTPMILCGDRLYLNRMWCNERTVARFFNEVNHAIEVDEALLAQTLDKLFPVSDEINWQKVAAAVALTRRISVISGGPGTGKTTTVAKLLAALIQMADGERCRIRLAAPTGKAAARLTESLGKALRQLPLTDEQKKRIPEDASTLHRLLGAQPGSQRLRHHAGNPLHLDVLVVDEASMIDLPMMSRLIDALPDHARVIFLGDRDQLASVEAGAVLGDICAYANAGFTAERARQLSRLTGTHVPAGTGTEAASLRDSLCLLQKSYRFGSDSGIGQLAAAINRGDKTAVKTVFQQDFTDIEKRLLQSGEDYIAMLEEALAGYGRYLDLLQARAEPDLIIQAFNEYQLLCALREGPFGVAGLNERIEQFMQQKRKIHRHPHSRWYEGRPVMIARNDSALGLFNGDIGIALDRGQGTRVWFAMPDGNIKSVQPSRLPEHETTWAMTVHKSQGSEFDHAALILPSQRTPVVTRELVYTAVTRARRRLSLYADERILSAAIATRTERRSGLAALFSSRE

With AGAGAGAGAGAGAGAGAGAGAGAG (ssDNA) [ssDNA-F], in the data set with RecBCD [1], the binding result is on record as “binds”.

GATGTGACTCGTTACCTGAGTTTTTACTCAGGTAACGAGTCACATC (structured_DNA) [hpDNA-F]: the binding result with RecBCD [2] is on record as “binds”.

B1: 3ohDNA-F (structured_DNA)
DNA: CATGTGACTCGTTACCTGAGTTTTTACTCAGGTAACGAGTCACATGATATATATAT
In the case of B1, in the data set with RecBCD [3], binding was characterised by a dissociation constant (Kd) of 166 ± 41 nM.

(Values after paper PMC11039987.)
